Data published in patent publication US20240269315A1, “DRUG CONJUGATE AND USE THEREOF” (priority 2021, published 2024).

Target: T1, Trop2 (UniProt P09758 27-323, limits assumed)
T1 sequence (looked up): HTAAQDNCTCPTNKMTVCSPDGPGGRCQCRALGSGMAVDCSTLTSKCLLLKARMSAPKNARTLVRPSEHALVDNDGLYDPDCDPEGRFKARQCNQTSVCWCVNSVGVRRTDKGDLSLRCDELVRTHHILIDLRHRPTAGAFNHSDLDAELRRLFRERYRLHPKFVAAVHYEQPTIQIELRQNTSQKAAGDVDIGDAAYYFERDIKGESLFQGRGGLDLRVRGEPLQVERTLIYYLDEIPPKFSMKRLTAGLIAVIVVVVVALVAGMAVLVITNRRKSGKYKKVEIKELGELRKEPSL
Test: cell-based or functional assay

B1: ADC4 (antibody, human IgG1, kappa, V domains shown)
VH: QVQLQQSGSELKKPGASVKVSCKASGYTFTNYGMNWVKQAPGQGLKWMGWINTYTGEPTYTDDFKGRFAFSLDTSVSTAYLQISSLKADDTAVYFCARGGFGSSYWYFDVWGQGTLVTVSS
VL: DIQLTQSPSSLSASVGDRVSITCKASQDVSIAVAWYQQKPGKAPKLLIYSASYRYTGVPDRFSGSGSGTDFTLTISSLQPEDFAVYYCQQHYITPLTFGAGTKVEIKR
modifications: CB07-Exatecan on cysteine thiols after TCEP reduction; positions not given; DAR (p) 4.2 per antibody
Which results are given for B1?
EC50 (ng/mL), growth inhibition of Trop2 positive MDA-MB-453 cells (CCK-8, 120 h): 640 ng/mL; EC50 (ng/mL), growth inhibition of Trop2 positive MDA-MB-468 cells (CCK-8, 120 h): 158 ng/mL; EC50 (ng/mL), growth inhibition of Trop2 positive MX-1 cells (CCK-8, 120 h): 233 ng/mL
